In publication PMC7375243, “Structural Basis of Human Helicase DDX21 in RNA Binding, Unwinding, and Antiviral Signal Activation” (Advanced Science, 2020):
Changes are numbered by the printed parent chain.

Tests used:
Settings in all cases: protein: recombinant; tags: N-terminal His-SUMO, removed by ULP1; label: FAM; single strand
[1] = molecular target: T1, DDX21 core D339H/E340G (DEV mutant) (human, UniProt Q9NR30 188-563, D339H;E340G); assay: UV crosslinking; highest activity of all; MST: 50 mM Tris pH 7.5, 50 mM KCl, 2 mM MgCl2, 1 mM TCEP, 0.01% NP-40, 0.05 mg/mL BSA, 2 mM AMPPNP, 50 nM FAM-RNA; temperature not given; crosslinking buffer not in material
T1 sequence: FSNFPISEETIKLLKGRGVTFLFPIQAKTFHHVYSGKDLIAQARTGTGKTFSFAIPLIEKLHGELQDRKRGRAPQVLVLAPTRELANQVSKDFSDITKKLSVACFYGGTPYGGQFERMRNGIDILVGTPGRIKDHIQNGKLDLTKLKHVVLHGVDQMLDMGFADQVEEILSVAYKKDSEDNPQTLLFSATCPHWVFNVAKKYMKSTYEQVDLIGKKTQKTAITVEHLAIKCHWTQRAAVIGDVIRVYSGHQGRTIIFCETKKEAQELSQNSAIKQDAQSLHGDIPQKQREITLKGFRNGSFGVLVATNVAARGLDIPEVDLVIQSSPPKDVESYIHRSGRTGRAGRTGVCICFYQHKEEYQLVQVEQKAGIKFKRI

DDX21 core T494A = molecular target: T2, DDX21 core T494A (human, UniProt Q9NR30 188-563, T494A); assay: UV crosslinking; negligibly affected; MST: 50 mM Tris pH 7.5, 50 mM KCl, 2 mM MgCl2, 1 mM TCEP, 0.01% NP-40, 0.05 mg/mL BSA, 2 mM AMPPNP, 50 nM FAM-RNA; temperature not given; crosslinking buffer not in material
T2 sequence: T1 sequence with H152D, G153E, T307A

DDX21 core T315A = molecular target: T3, DDX21 core T315A (human, UniProt Q9NR30 188-563, T315A); assay: as above
T3 sequence: T1 sequence with T128A, H152D, G153E

DDX21 core 4R to A = molecular target: T4, DDX21 core 4R to A (human, UniProt Q9NR30 188-563, R255A;R270A;R318A;R476A); assay: UV crosslinking; reduced by more than half; MST: 50 mM Tris pH 7.5, 50 mM KCl, 2 mM MgCl2, 1 mM TCEP, 0.01% NP-40, 0.05 mg/mL BSA, 2 mM AMPPNP, 50 nM FAM-RNA; temperature not given; crosslinking buffer not in material
T4 sequence: T1 sequence with R68A, R83A, R131A, H152D, G153E, R289A

DDX21 core 3R to A = molecular target: T5, DDX21 core 3R to A (human, UniProt Q9NR30 188-563, R270A;R318A;R476A); assay: as above
T5 sequence: T1 sequence with R83A, R131A, H152D, G153E, R289A

B1: FAM-U15 (ssRNA)
RNA: UUUUUUUUUUUUUUU
B1: binds [1]; binds (DDX21 core T494A); binds (DDX21 core T315A). The binding signal (DDX21 core 4R to A) was < 50 % of WT and the binding signal (DDX21 core 3R to A) was < 50 % of WT.
